# Assay results reported in the DeepSol protein solubility set.
# Experiment: soluble on expression in E. coli; label from the status in PepcDB or PDB records
row,Sequence,soluble on expression in E. coli
1,MLLAFKAKIALAALAGFVTPLAVTPLVIDHGDAALDGQQAMVEIAPGAMDYRLPGEFTRDGRQIEAPRTKLQFDRPLSIMLHQVSAADYQRCVDDGACHPMPAATAVRADRPAVQVSWQDATTYADWLSRKTGAHYRLPTDAEWAFAAGSKFKDDGLALDSDDPSVRWIARYERESDRDNLSAALRSFGGFGANERGLLDLSGNVWEWTTTCFDRSAIDAAGRPQAQTANCGVRVAEGLHRAYVSDFIRDAKAGGCSAGLPPIHLGFRLVREPAAPLARLRGQLDRVVTAAGILEHHHHHH,not soluble
2,MGSDKIHHHHHHMEQLLHYVWKHKIFPLKELKTTTGQQVEVIDTGLANTDAGPDFFNAKLKLDGVLWIGNIEIHERSSDWFKHGHHADAGYNSVILHIASEIDTEISRSNGERIPQIQLICPEAVRTNYKELLETDSYPPCYRIIPSLPPFTAHSWMTALQMERFEQKATLLNERLKRCQGNWEDAFFITLARNFGFGLNGDAFETWAHRLPFRAVDKHRNDLFQIEAIFFGQAGILEDSDGDGYYLRLKKEYTYLQHKFGLIPMDASLWRFLRLRPANFPHIRIAQLACLYHRAYGLLSRIMETETLQGVRDILKGGTSEYWLTHYTFGGSSPSRPKTLSNTSLDLLIINTVVTFLYAYGLHKGNRVLCARAGCFLEELKAENNYITRMWEQCGMKASNAADSQALIQLKKEYCDKKKCLYCRIGYEYLKRS,not soluble
3,SSLAISVANDDAGIFQPSLNALYGHPAADRGDYTAGLFLGYSHDLTDASQLSFHIAQDIYSPSGANKRKPEAVKGDRAFSAFLHTGLEWNSLATNWLRYRLGTDIGVIGPDAGGQEVQNRAHRIIGAEKYPAWQDQIENRYGYTAKGMVSLTPAIDILGVNVGFYPEVSAVGGNLFQYLGYGATVALGNDKTFNSDNGFGLLSRRGLIHTQKEGLIYKVFAGVERREVDKNYTLQGKTLQTKMETVDINKTVDEYRVGATIGYSPVAFSLSLNKVTSEFRTGDDYSYINGDITFFF,soluble
4,MKDIEKARRYLRNAGEMLRKNEVDEDGIYNNRKHVKIAGNRAYSGVLTALDAVLGNKTSDRKTLDWYEEELTNIDPKILPYFLTAYDVLYLAMGYDGNLIAAISKEGLDIAEKIINWAEQRTAA,not soluble
5,MGSDKIHHHHHHMERMALHFEILENGKVKCLLCPHECVLDNGQIGLCGVRKNKNGSLVSLNYGEVTAIAMDPIEKKPLFHFNPGEQIFSVGTFGCNFKCGFCQNWEISQAKPETKRVTPEQLVKIAQMNRNSKGIAFTYNEPLVWYEFVLDTSRVAVREGMYCVLVTNGFINEEPLELLFQSVHAMNIDLKGFNRDFYREIGGDLDVVLRNIEKVYNAGIHVELTTLIIPGKNDDKEDLRREFEWIADLDKDIPLHISRYFPNYKYTIPPTPIEELIEIYEMAREYLNFVYLGNVWDERYESTFCPDCGNLVIRRQGYEVEKVGLDEEGKCTKCGRQIATIIG,not soluble
6,MSLATALVLGYSAFDLGLFSDKDPRLKLIKKAIRKDLEAMAADGVSWLVFTGSLGFEYWVLEVAQEMKTEYGFQLATIFAFETHGENWNEGNQMKLSRFKQVDFVKYAYPRYEHKGQLRDYQQFLLENTTSSYLFYDEENETKLAYFYQKMKNQEDYFIKRLTFDQLNELAENFSENEGHHHHHH,soluble
7,KKITRPIEKLSDTVSQMAKGQYDTRAKIKTDGEVGDLVNSFNIMADRLEKNIEELEDTARRQEDFTAAFAHELKTPLTSIIGYSDMMRSMDLEKEEISEYSNYIFLQGKRLEKLSFTLMDLISLDKQKIEFNRISTEKMFNDIEKTVEQMLREHNIRFKMSVEPAVIVGNEDLLKSLFMNIIDNGRKAISGQGIIALKAIKTEKGYTVFIQDNGCGMEKSEIKKITEAFYMIDKSRARKEGGAGIGMSLCKKIVSIHNAKWSVRSKPGKGTIISIVFQEGQN,not soluble
8,MCDISTEDQLLEFARKAAESGDQTQTFEFKKHIGFLIRHLNVFPQPYNTLETSRNTIFLFAISSLDLLGELDNLLTPERRQAYIDWIYGLQFTNGNVCGFRGSHSCENSGYDEANLAQTYSALLSLAILGDDLKKVDRKAILKTVKTAQRDNGCFWSQGVGSESDMRFVFCAVAISHILDGDKEQTIDWTKLAGFLRQSLNIDGGIGQAPGDESHGGSTFCAIASLALSNRLWTEEVLTRRDIDRLIRWAIQKQDIGFHGRAHKPDDSCYAFWIGATLKILNAYHLVSKQHLREFLMICQHPHIGGFCKYPEPGGYSDILHTYFSIAALSLLGEPAVNPVHPSLNVSMRVAERIARLQFD,not soluble
9,GILRTQHTIRDSELNIKNSKMSDSVNARESNVYMAKLAEQAERYDEMAKYMKDVVEARQESEELTVEERNLLSVAYKNAVGSRRSSWRIISSVEQKEHSRNAEDASKMCGKYRSKVEAELTDICNDILTMLDKHLIPTATSPDSKVFYFKMKGDYHRYISEFSTGDSKQSSAEDALKAYKDATVVAKDLEPTHPIRLGLALNFSVFHYEILNEPRAAIDMAKEAFEMAIEQLDKLSEDCYKDSTLIMQLLRDNLTLWTAD,soluble
10,MGHHHHHHGGHMSLKVFIDPDGDIEEIKEAFRLINPELYERLLKIDGSDEFFRYMVKPLRVSVRVNTLKAEVDEVVENLKELITGRVPWCEEGFYLSIDEFSRIPEHQLGLIFSQEAASMIPPLVMELEPKMTVLDIAASPGAKTTQIAQYLQNEGCIVANDVKHSRINILISNLQRCGVLIAKVTVKDGRYFGRFRNRFDAVLVDAPCSNMGMIRKNYRNIRLWKMRDCYGLSKLQKSLLMAAYKAVKPGGVVVYSTCTLEPIENEEVVDYILRNTDAEIEEVNLPVKGVEPFTKFDGKEYSEEVRKCLRLHPQSSDTEGFFVAKLRKPEGGS,soluble
11,MGSDKIHHHHHHMKKILIVTRTFGKYSQEPVEFLRKEGFEIIRSDTIDPDILKEVDALIVGTHPVTAEMVENSSLKIIAKHGVGVDNIDLEAATKKGIPVTITAGANSLSVAELTIAFIFALSRGLVWAHNKLFLERRWEGTVGQEVSGKTLGVVGFGSIGREVVKKAVCLGMNVLVYDPYVSKDSVRLLEATPVDDLEQLLKESDFVSLHVPLNESTKNMIGERELSLMKKSAFLINTSRGELVDEEALVKALKEGRIAGAALDVFSEEPPDANSPLFECPNLITTAHIGAHTKEAIFRMNMMAAQSIVDFFKGRIPRYVVNKEVIRILKEKGYQEIS,not soluble
12,MCMHLSSPALPIGGFSYSQGLEAAIELGLVHDEASTLAWIESQLVTVMARAEAPLWLLFEAWRAGDDAAAHGWNQWFHASRETRELRQETEQMGRSLARLAQELGWGTAATRAAVAALRPATLPAVHACACAMWALPREAGLGAYVFSWLENQVAAAIKGVPLGQMAGQRMLERLRAGLPAVLADARARAGATPPRLDTFAPQYALVSARHETQFSRLFRSAAALEHHHHHH,not soluble
13,MGSDKIHHHHHHMKDNFFGREYDIAPAGGETGQAFVATHEDEKFFLKRNSSPFLAALSVENIVPKLVWTRRVENGDVITAQKWVNCHILTREEMVGPRVAKLLAKIHHSENLQHMLAKIENCYFSADQLLSLIKVNTKANNELSKEIIAAIRYLEQNLSAAQTNDYVVCHGDVNHNNWIISEENELFLVDWDGAMLADPANDIGMILYQYIPRKDWVSWLSNYGTTLTEELHRKLKWYTICQTVMQLITEHSNEANERAKQIFQNAIEDDEV,not soluble
14,MGSDKIHHHHHHMEILLARQPIVDRFGSIDAFELLYRSVETPAVFDGDLATMDVLTNTLIHLGVDRVAEGKRLFINFTGDLLQSELIDHLNPTQFVIEVLETVQIDEMMLQTLQKWKEAGFVLALDDFVTDLLRHHGPELFDLIDLIKIDIEAINPREQSAILHILKRNYPHIRFLAERVETHEDHTRSLAMGYDWFQGYFYAKPMLMKGKAVPPQVPVLLKMLKWLDTDDHYDDVVDEIEGNPYISVQVLQLINSPGIGLRNMVSSVRQAISLLGFSQLKSWISLIVLREMKLASPYQWSDELLRSSLHCAKLCQLFATETKTLKAESAYMIGLLSHIDALLSVDIGEIIDQLPIEPALKNVLQGEDHPFRDCLLLAISADRGEFERFEMLSNRFGIMKHRAYELLKESQVWLSQKELHLQDKTDSIV,not soluble
15,AIAFKRKTAWFSDSVEKEVISFWVSEGGDISSWKTAGYLFSDDASSEDTKRIYGSEDYVKNRATVFHSSFLLACQPRQSVTSVPIGHYVLPPDFVQNEMKAIIGRFIWEKDEQVICEEQINPEVPKDILSGETEDHALRERSSQDDYQTVTSQSKVCSCCEMRQYPVNNMISGYVHIDQMRKYSGELKDFLPSLHGHDVSRSNDPTPPFHRKAV,soluble
